Kd data for one molecule are collected here from publication PMC11826918, “Generation of antagonistic biparatopic anti-CD30 antibody from an agonistic antibody by precise epitope determination and utilization of structural characteristics of CD30 molecule” (Antibody Therapeutics, 2025).

Common to all, as to assay: SPR; Biacore T200; antibody captured on anti-human Fc (CM5 chip); CD30-MBP flowed at 0, 2, 20 nM (T426: 0, 20, 200 nM), contact 90 s, dissociation 300 s; fit to a 1:1 binding mode; rough-level analysis
Common to all, as to settings: both partners purified

One test addresses T1, BpT10-427.
T1 construct: AC10 Fv, N side; T427 Fv, C side; one Fab of each Fv; knobs-into-holes Fc; source: Expi293 fragments joined by intein-mediated protein trans-splicing, purified (Superdex 200 Increase); copies: + + +

The target of the next test is T2, BpT25-405.
T2 construct: T25 Fv, N side; T405 Fv, C side; one Fab of each Fv; knobs-into-holes Fc; source: Expi293 fragments joined by intein-mediated protein trans-splicing, purified (Superdex 200 Increase); copies: + + +

For the next test, the target named is T3, BpT10-104.
T3 construct: AC10 Fv, N side; T104 Fv, C side; one Fab of each Fv; knobs-into-holes Fc; source: Expi293 fragments joined by intein-mediated protein trans-splicing, purified (Superdex 200 Increase); copies: + + +

In the next test the target is T4, BpT25-427.
T4 construct: T25 Fv, N side; T427 Fv, C side; one Fab of each Fv; knobs-into-holes Fc; source: Expi293 fragments joined by intein-mediated protein trans-splicing, purified (Superdex 200 Increase); copies: + + +

The next test concerns the target T5, BpT107-104.
T5 construct: T107 Fv, N side; T104 Fv, C side; one Fab of each Fv; knobs-into-holes Fc; source: Expi293 fragments joined by intein-mediated protein trans-splicing, purified (Superdex 200 Increase); copies: + + +

The target in the next test is T6, BpT10-105.
T6 construct: AC10 Fv, N side; T105 Fv, C side; one Fab of each Fv; knobs-into-holes Fc; source: Expi293 fragments joined by intein-mediated protein trans-splicing, purified (Superdex 200 Increase); copies: + + +

The target in a further test is T7, BpT107-25.
T7 construct: T107 Fv, N side; T25 Fv, C side; one Fab of each Fv; knobs-into-holes Fc; source: Expi293 fragments joined by intein-mediated protein trans-splicing, purified (Superdex 200 Increase); copies: + + +

The target in another test is T8, BpT105-107.
T8 construct: T105 Fv, N side; T107 Fv, C side; one Fab of each Fv; knobs-into-holes Fc; source: Expi293 fragments joined by intein-mediated protein trans-splicing, purified (Superdex 200 Increase); copies: + + +

Another test addresses T9, BpT105-6.
T9 construct: T105 Fv, N side; T6 Fv, C side; one Fab of each Fv; knobs-into-holes Fc; source: Expi293 fragments joined by intein-mediated protein trans-splicing, purified (Superdex 200 Increase); copies: + + +

T8 sequence (chain, as listed by the source, chain 1 of 4): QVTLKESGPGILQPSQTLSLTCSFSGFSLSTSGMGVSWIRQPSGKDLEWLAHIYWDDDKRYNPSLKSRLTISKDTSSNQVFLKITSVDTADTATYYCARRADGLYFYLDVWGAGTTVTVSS
T8 sequence (chain, as listed by the source, chain 2 of 4): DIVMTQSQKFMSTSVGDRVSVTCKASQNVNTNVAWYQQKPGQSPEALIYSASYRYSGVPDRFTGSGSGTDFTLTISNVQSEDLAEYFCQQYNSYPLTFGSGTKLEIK
T8 sequence (chain, as listed by the source, chain 3 of 4): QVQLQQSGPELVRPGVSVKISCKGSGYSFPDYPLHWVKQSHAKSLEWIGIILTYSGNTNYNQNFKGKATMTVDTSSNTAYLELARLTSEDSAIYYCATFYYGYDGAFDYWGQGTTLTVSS
T8 sequence (chain, as listed by the source, chain 4 of 4): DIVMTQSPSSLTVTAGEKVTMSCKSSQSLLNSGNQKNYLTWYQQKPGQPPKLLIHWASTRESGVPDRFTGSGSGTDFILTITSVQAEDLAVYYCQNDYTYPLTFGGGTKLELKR
T9 sequence (chain, as listed by the source, chain 3 of 4): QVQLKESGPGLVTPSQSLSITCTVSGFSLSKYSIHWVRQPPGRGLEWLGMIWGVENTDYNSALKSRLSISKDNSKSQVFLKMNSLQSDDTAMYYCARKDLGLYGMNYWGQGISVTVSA
T9 sequence (chain, as listed by the source, chain 4 of 4): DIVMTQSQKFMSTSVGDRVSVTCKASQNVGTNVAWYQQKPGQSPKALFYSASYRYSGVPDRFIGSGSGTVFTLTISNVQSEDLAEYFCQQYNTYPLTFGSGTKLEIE
T4 sequence (chain, as listed by the source, chain 1 of 4): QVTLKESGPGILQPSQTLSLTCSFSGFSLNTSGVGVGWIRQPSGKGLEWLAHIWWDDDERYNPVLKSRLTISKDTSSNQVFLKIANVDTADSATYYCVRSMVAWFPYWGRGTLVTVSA
T4 sequence (chain, as listed by the source, chain 2 of 4): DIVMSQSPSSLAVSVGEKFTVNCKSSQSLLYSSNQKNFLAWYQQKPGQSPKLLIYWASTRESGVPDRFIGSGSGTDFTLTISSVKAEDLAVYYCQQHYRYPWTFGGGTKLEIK
T4 sequence (chain, as listed by the source, chain 3 of 4): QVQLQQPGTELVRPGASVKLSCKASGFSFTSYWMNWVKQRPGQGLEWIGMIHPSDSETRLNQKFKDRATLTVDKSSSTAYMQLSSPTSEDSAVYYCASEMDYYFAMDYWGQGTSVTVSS
T4 sequence (chain, as listed by the source, chain 4 of 4): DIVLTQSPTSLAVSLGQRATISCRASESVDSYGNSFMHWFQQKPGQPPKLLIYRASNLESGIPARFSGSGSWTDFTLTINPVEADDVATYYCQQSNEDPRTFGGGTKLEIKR
T5 sequence (chain, as listed by the source, chain 3 of 4): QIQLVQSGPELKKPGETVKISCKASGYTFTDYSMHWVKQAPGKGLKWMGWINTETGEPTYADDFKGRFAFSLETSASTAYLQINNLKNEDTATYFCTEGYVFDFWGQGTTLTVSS
T5 sequence (chain, as listed by the source, chain 4 of 4): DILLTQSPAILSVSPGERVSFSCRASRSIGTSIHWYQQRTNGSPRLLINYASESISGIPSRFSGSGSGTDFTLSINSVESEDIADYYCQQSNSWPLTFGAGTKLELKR
T6 sequence (chain, as listed by the source, chain 1 of 4): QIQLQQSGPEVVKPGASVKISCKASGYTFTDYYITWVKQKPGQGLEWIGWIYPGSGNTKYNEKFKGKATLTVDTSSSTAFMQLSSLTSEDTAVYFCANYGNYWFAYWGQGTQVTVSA
T6 sequence (chain, as listed by the source, chain 2 of 4): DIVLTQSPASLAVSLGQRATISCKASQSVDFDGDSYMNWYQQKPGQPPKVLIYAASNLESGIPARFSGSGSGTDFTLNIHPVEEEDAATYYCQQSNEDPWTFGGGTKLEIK

B1: Maltose-binding protein-fused CD30 (domain or fragment)
chain: FPQDRPFEDTCHGNPSHYYDKAVRRCCYRCPMGLFPTQQCPQRPTDCRKQCEPDYYLDEADRCTACVTCSRDDLVEKTPCAWNSSRVCECRPGMFCSTSAVNSCARCFFHSVCPAGMIVKFPGTAQKNTVCEPASPGVSPACASPENCKEPSSGTIPQAKPTPVSPATSSASTMPVRGGTRLAQEAASKLTRAPDSPSSVGRPSSDPGLSPTQPCPEGSGDCRKQCEPDYYLDEAGRCTACVSCSRDDLVEKTPCAWNSSRTCECRPGMICATSATNSCARCVPYPICAAETVTKPQDMAEKDTTFEAPPLGTQPDCN
modifications: Construct 1-336 includes signal peptide 1-18, taken as cleaved on secretion; C-terminal MBP carrier and His tag left out; disulfide-bonded, likely glycosylated (Expi293)
Broadly, the Kd is the free concentration of one partner at which half of the binding sites on the other are occupied at equilibrium, for simple one-to-one binding. A lower Kd goes with tighter binding. B1: the Kd in the test with BpT10-427 came to 580 pM; with BpT25-405, 910 pM; with BpT10-104, 260 pM; in the test with BpT25-427 it was 570 pM; with BpT107-104, 400 pM; with BpT10-105, 66 pM. The results for the Kd with BpT107-25, with BpT105-107 and with BpT105-6 were 870 pM, 260 pM and 370 pM, respectively.
